Assay results published in US20050182242A1, “Global analysis of protein activities using proteome chips” (priority 2001, published 2005).

Tests used:
PI(3,4,5)P3 liposomes = assay: Yeast proteome chip probed with PI(3,4,5)P3 liposomes; conditions: liposome binding signal on yeast proteome chip, Cy3-streptavidin detection
PI(4,5)P2 liposomes = assay: Yeast proteome chip probed with PI(4,5)P2 liposomes; conditions: liposome binding signal on yeast proteome chip, Cy3-streptavidin detection
[1] = tested on: phospholipids (phosphatidylinositols vs phosphatidylcholine); assay: Proteome chip lipid-binding screen, overall analysis of six liposomes (PI/PC specificity); conditions: phospholipid liposome probes
Source text: FIGS. 4A-4D. Analysis of the phosphatidylinositol-binding proteins. To determine the phosphatidylinositol (“PI”)-binding specificity of 150 positive proteins, their binding signals were normalized against the corresponding binding signals of phosphatidylcholine (“PC”). Based on the ratios (“PI/PC”), the proteins were grouped into four categories: (A) 30 strong and specific, (B) 43 strong and nonspecific, (C) 19 weak and specific, and (D) 58 weak and nonspecific phosphatidylinositol-binding proteins. The intensity represents the PI/PC signal ratio as shown by the scale in the figure. The column, labeled “10^n” to the right of the PI/PC binding ratios indicates the maximum binding signal intensity (open boxes) and its confidence interval (solid horizontal lines); the numbers indicate the log of the values. Boxes in the three columns to the right of the confidence interval column indicate membrane-associated proteins (“Membrane”), kinases (“Kinase”), and uncharacterized ORFs (“Unknown”), respectively.
To identify PI-binding proteins in yeast, liposomes were used as probes because the liposome provides the most relevant physiological condition to assay the interactors. Six types of liposomes were used. Each contains phosphatidylcholine (“PC”) with 1% (w/w) N-(biotinoyl)-1,2-dihexadecanoyl-sn-glycero-3-phosphoethanolamine, triethylammonium salt (biotin DHPE). The biotinylated lipid serves as a label that can be detected by Cy3-streptavidin (21). In addition to PC, the five other liposomes contain either 5% (w/w) PI(3)P, PI(4)P, PI(3,4)P2, PI(4,5)P2, or PI(3,4,5)P3 (FIG. 3A).
The protein-liposome interaction was assayed as follows. Appropriate amounts of each lipid in chloroform were mixed and dried under nitrogen. The lipid mixture was resuspended in TBS buffer by vortexing. The liposomes were created by sonication. Blocked proteome chips were washed three to five times in PBS buffer, and the extra liquid on the glass surface was removed by tapping the slides vertically on a KIMWIPE™. 200 μl of liposome solution was added to the proteome chip and immediately covered by a hydrophobic plastic cover slip (GRACE BIO-LAB™, USA). After trapped air bubbles were removed, the chip was incubated in a humidity chamber at RT for one hour. To remove the cover slip, the chip was immersed into large volume of PBS buffer (50 ml), so that the slip would float away. The chip was then moved to a second PBS bath (>50 ml) and washed 3×5 min with shaking at RT. After removing extra liquid on the surface of the chip, about 100 μl of Cy3 or Cy5 conjugated streptavidin (PIERCE™, USA; 1:2000 to 1:4000 dilution) was added to the surface and covered by a hydrophobic plastic cover slip (GRACE BIO-LABS™, USA). The chip was incubated for greater than 30 min in the dark at RT. The chip was then washed as described above. To completely remove the liquid on the chip, the chip was spun to dryness at 1500-2000 rpm for 5-10 min at RT.
An algorithm was devised to assist in the identification of positive signals (42). Fifty-two (35%) of the interactors (i.e., lipid-binding proteins) correspond to uncharacterized proteins thus ascribing the first biochemical activities to those proteins.
The interactors (i.e., phospholipid-binding proteins) were grouped in several ways (42). First, the interactors were sorted according to whether they bound lipids strongly or weakly, based on the phospholipid-binding signal relative to the amount of GST (FIG. 4). Slightly more (72%) of the strong lipid binding proteins (FIGS. 4A and 4B) were characterized relative to the weakly binding proteins (54%) (FIGS. 4C and 4D). Many of the strong lipid-binding proteins are membrane-associated, or are predicted to be associated with membranes, whereas fewer of the weaker binding proteins appear to be associated with membranes (FIG. 4, “Membrane” column). […] Moreover, thirteen of the seventeen protein kinases bind very strongly to the phospholipids. […]

[2] = tested on: phosphatidylcholine (PC) liposomes; assay: Yeast proteome chip probed with PC liposomes; conditions: liposome binding signal on yeast proteome chip, Cy3-streptavidin detection
Procedure, shortened: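 Yeast proteome chips incubated 1 h at RT with sonicated liposomes of PC containing 1% (w/w) biotin-DHPE, plus 5% (w/w) of the indicated phosphoinositide where applicable. After PBS washes, bound liposomes detected with Cy3- or Cy5-streptavidin (>30 min, RT, dark) and fluorescence scanned.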

PI(3,4)P2 liposomes = assay: Yeast proteome chip probed with PI(3,4)P2 liposomes; conditions: liposome binding signal on yeast proteome chip, Cy3-streptavidin detection
PI(3)P liposomes = assay: Yeast proteome chip probed with PI(3)P liposomes; conditions: liposome binding signal on yeast proteome chip, Cy3-streptavidin detection
PI(4)P liposomes = assay: Yeast proteome chip probed with PI(4)P liposomes; conditions: liposome binding signal on yeast proteome chip, Cy3-streptavidin detection
calmodulin = target: T1, calmodulin (Homo sapiens, UniProt P0DP23); assay: Yeast proteome chip probed with biotinylated calmodulin; type: binding; conditions: biotinylated calmodulin in the presence of calcium
T1 construct: purchased CalBiochem, USA
Source text: To test for protein-protein interactions, the yeast proteome was probed with calmodulin (11). Calmodulin is a highly conserved calcium-binding protein involved in many calcium-regulated cellular processes and has many known physical partners (Hook et al., 2001, Annu. Rev. Pharmacol. Toxicol. 41:471). The calmodulin probe was biotinylated, and bound probe was detected using Cy3-labeled streptavidin. As a control, the yeast proteome was probed with Cy3-labeled streptavidin alone.
Generally, protein-protein interactions can be assayed as follows. Blocked proteome chips are washed three to five times in PBS buffer, and the extra liquid on the glass surface is removed by tapping the slides vertically on a KIMWIPE™. 200 ∞l of biotinylated protein probe is added to the proteome chip and immediately covered by a hydrophobic plastic cover slip (GRACE BIO-LABS™, USA). After trapped air bubbles are removed, the chip is incubated in a humidity chamber at room temperature (RT) for one hour. To remove the cover slip, the chip is immersed into large volume of PBS buffer (>50 ml), and the slip should float away. The chip is then moved to a second PBS bath (>50 ml) and washed 3×5 min with shaking at RT. After removing extra liquid on the surface of the chip, at least 150 μl of Cy3- or Cy5-conjugated streptavidin (PIERCE™, USA; 1:2000 to 1:4000 dilution) is added to the surface and covered by a hydrophobic plastic cover slip (GRACE BIO-LABS™, USA). The chip is incubated for greater than 30 min in the dark at RT. The chip is then washed as described above. To completely remove the liquid on the chip, the chip is spun to dryness at 1500-2000 rpm for 5-10 min at RT.
• 1. S. Fields, Y. Kohara, D. J. Lockhart, Proc. Natl. Acad. Sci. 96, 8825 (1999); A. Goffeau et al., Science 274, 563 (1996). • 2 P. Ross-Macdonald et al., Nature 402, 413 (1999); J. L., DeRisi, V. R. Iyer, P. O. Brown, Science 278, 680 (1997); E. A. Winzeler et al., Science 285, 901 (1999). P. Uetz et al., Nature 403, 623 (2000); T. Ito et al., Proc. Natl. Acad. Sci. USA. 97, 1143 (2000) • 3 H. Zhu, M. Snyder, Curr. Opin. Chem. Biol. 5, 40 (2001). • 4 M. R. Martzen et al., Science 286, 1153 (1999). • 5 H. Zhu et al., Nat. Genet. 26, 283 (2000). • 6 G. MacBeath, S. L. Schreiber, Science 289, 1760 (2000). • 7 A. Caveman, J. Cell Sci. 113, 3543 (2000). • 8 P. Arenkov et al., Anal. Biochem 278, 123 (2000). • 9 D. A. Mitchell, T. K. Marshall, R. J. Deschenes, Yeast 9, 715 (1993). The expression vector pEGH was created by inserting an RGS-HisX6 epitope tag between the GST gene and the polycloning site of pEG(KG). The yeast ORFs were cloned using the strategy described previously (5), except every step was done in a 96-well format. Plasmid DNAs confirmed by DNA sequencing were reintroduced into both yeast (Y258) and E. coli (DH5a). […] 0.1 mM calcium was present in buffers in all subsequent steps. The chip was washed three times with PBS at RT. Cy3-conjugated streptavidin (Jackson IR, USA) (1:5000 dilution) was added to the chip and incubated for 30 min at RT. After extensive washing, the chip was spun dry and scanned using a microarray scanner; the data was subsequently acquired with the GENEPIX™ array densitometry software (Axon, USA). • 12 S. S. Hook, A. R. Means, Annu. Rev. […]

Row | Molecule | PI(3, 4, 5)P3 (PI(3,4,5)P3 liposomes) | PI(4, 5)P2 (PI(4,5)P2 liposomes) | identified as lipid-binding interactor [1] | PC [2] | PI(3, 4)P2 (PI(3,4)P2 liposomes) | PI(3)P (PI(3)P liposomes) | PI(4)P (PI(4)P liposomes) | calmodulin binding (calmodulin)
1 | PYK1: yeast pyruvate kinase, GST-HisX6 fusion (protein, UniProt P00549 2-500, looked up, GST-HisX6 tag, yeast pyruvate kinase, GST-HisX6 fusion) Pyruvate kinase 1: SRLERLTSLNVVAGSDLRRTSIIGTIGPKTNNPETLVALRKAGLNIVRMNFSHGSYEYHKSVIDNARKSEELYPGRPLAIALDTKGPEIRTGTTTNDVDYPIPPNHEMIFTTDDKYAKACDDKIMYVDYKNITKVISAGRIIYVDDGVLSFQVLEVVDDKTLKVKALNAGKICSHKGVNLPGTDVDLPALSEKDKEDLRFGVKNGVHMVFASFIRTANDVLTIREVLGEQGKDVKIIVKIENQQGVNNFDEILKVTDGVMVARGDLGIEIPAPEVLAVQKKLIAKSNLAGKPVICATQMLESMTYNPRPTRAEVSDVGNAILDGADCVMLSGETAKGNYPINAVTTMAETAVIAEQAIAYLPNYDDMRNCTPKPTSTTETVAASAVAAVFEQKAKAIIVLSTSGTTPRLVSKYRPNCPIILVTRCPRAARFSHLYRGVFPFVFEKEPVSDWTDDVEARINFGIEKAKEFGILKKGDTYVSIQGFKAGAGHSNTLQVSTV | −1.12 | −13.06 | identified | 6.46 | −5.02 | −9.00 | 10.45 | –
2 | Cmk2p: yeast calcium/calmodulin-dependent serine/threonine protein kinase (protein, UniProt P22517 1-447, looked up) Calcium/calmodulin-dependent …: MPKESEVINSEFHVDVQDPERLNGHPVAKFINKLSGQPESYVNRTNYIFGRTLGAGSFGVVRQARKLSTNEDVAIKILLKKALQGNNVQLQMLYEELSILQKLSHPNIVSFKDWFESKDKFYIVTQLATGGELFDRILSRGKFTEVDAVEIIVQILGAVEYMHSKNVVHRDLKPENVLYVDKSENSPLVIADFGIAKQLKGEEDLIYKAAGSLGYVAPEVLTQDGHGKPCDIWSIGVITYTLLCGYSPFIAESVEGFMEECTASRYPVTFHMPYWDNISIDVKRFILKALRLNPADRPTATELLDDPWITSKRVETSNILPDVKKGFSLRKKLRDAIEIVKLNNRIKRLRNMYSLGDDGDNDIEENSLNESLLDGVTHSLDDLRLQSQKKGGELTEEQMKLKSALTKDAFVQIVKAATKNKHKVLAGEEEDDSKKTLHDDRESKSED | – | – | – | – | – | – | – | identified
3 | SNF1: yeast protein kinase, regulator of glucose metabolism, GST-HisX6 fusion (protein, UniProt P06782 1-633, looked up) Carbon …: MSSNNNTNTAPANANSSHHHHHHHHHHHHHGHGGSNSTLNNPKSSLADGAHIGNYQIVKTLGEGSFGKVKLAYHTTTGQKVALKIINKKVLAKSDMQGRIEREISYLRLLRHPHIIKLYDVIKSKDEIIMVIEYAGNELFDYIVQRDKMSEQEARRFFQQIISAVEYCHRHKIVHRDLKPENLLLDEHLNVKIADFGLSNIMTDGNFLKTSCGSPNYAAPEVISGKLYAGPEVDVWSCGVILYVMLCRRLPFDDESIPVLFKNISNGVYTLPKFLSPGAAGLIKRMLIVNPLNRISIHEIMQDDWFKVDLPEYLLPPDLKPHPEEENENNDSKKDGSSPDNDEIDDNLVNILSSTMGYEKDEIYESLESSEDTPAFNEIRDAYMLIKENKSLIKDMKANKSVSDELDTFLSQSPPTFQQQSKSHQKSQVDHETAKQHARRMASAITQQRTYHQSPFMDQYKEEDSTVSILPTSLPQIHRANMLAQGSPAASKISPLVTKKSKTRWHFGIRSRSYPLDVMGEIYIALKNLGAEWAKPSEEDLWTIKLRWKYDIGNKTNTNEKIPDLMKMVIQLFQIETNNYLVDFKFDGWESSYGDDTTVSNISEDEMSTFSAYPFLHLTTKLIMELAVNSQSN | 560.70 | 423.73 | identified | 1774.37 | 298.26 | 202.00 | 1795.06 | –
